Assay results from paper PMC9158284, “N-terminally truncated Aβ4-x proteoforms and their relevance for Alzheimer’s pathophysiology” (Translational Neurodegeneration, 2022).
“Also recorded” adds a separate entry of the source.

Assays:
[1] = design: species or system C57BL/6 mice; conditions: mouse, in vivo
Protocol: (§1) One hundred micrograms of either full-length or truncated Aβ species in both monomeric and oligomeric forms were radiolabeled using 1,3,4,6-tetrachloro-3α-6α-diphenylglycoluril pre-coated tubes (Iodogen, ThermoFisher Scientific/Pierce, Waltham, MA) and Na^125I (1 mCi, PerkinElmer, Waltham, MA), following the manufacturer’s specifications. All radiolabeling procedures were carried out for 20 min in a Standalone Radioiodine IH-350 hood (Atlantic Nuclear, Rockland, MA). Following removal of free Iodine using a desalting polyacrylamide column (D-salt, cut off 1.8 kDa, Pierce), radioactivity of labeled Aβ was assessed in a Perkin Elmer 1470 automated gamma counter (Perkin Elmer, Waltham, MA). Under these experimental conditions, [^125I] incorporation rendered specific activities in the range of 3–5 µCi/µg with > 98% TCA precipitable counts. Aggregation status of the [^125I]-labeled Aβ monomeric and oligomeric species was analyzed by autoradiography following 16.5% SDS–polyacrylamide gel electrophoresis and subsequent direct exposure to HyBlot CL film (Denville Scientific Inc., South Plainfield, NJ), as we previously described. If not immediately used for the clearance experiments, [^125I]Aβ oligomeric peptides were stored at -80 °C and used within a week to prevent further oligomerization and minimize radiolysis.
C57BL/6 mice (Taconic Biosciences, Hudson, NY) were intracerebrally injected with the different Aβ preparations following institutionally approved IACUC protocols, essentially as previously reported by our laboratory. […] Radioactivity remaining in the whole brain was assessed in the Perkin Elmer 1470 γ-counter.

[2] = Thioflavin T binding assay; type: physicochemical; conditions: after 24-h incubation at 37 °C under physiological salt concentrations; 50 mM Tris–HCl pH 8.5; ex 435 / em 490 nm; three independent experiments
Protocol: Aggregation of the different Aβ homologues was also monitored by Thioflavin T binding, following previously described protocols. Briefly, 6 μl aliquots from each peptide aggregation time point were added to 184 μl of 50 mM Tris–HCl buffer, pH 8.5, and 10 µl of 0.1 mM thioflavin T (Sigma). Fluorescence was recorded for 300 s in an LS-50B spectrometer (Perkin Elmer, Waltham, MA) with a slit width of 10 nm and excitation and emission wavelengths of 435 and 490 nm, respectively.

[3] = Autoradiography after SDS-polyacrylamide gel electrophoresis of [125I]-labeled Aβ preparations; type: physicochemical; conditions: [125I]-labeled 24-h incubated preparations, 16.5% SDS–polyacrylamide gel
Protocol: as §1

[4] = after 24-h incubation at 37 °C, 50 μM in 10 mM phosphate buffer pH 7.4, 150 mM NaF; mean of 15 scans
Protocol: Changes in the secondary structure of the different Aβ peptides induced by the oligomerization procedure were estimated by CD spectroscopy, as previously described [66]. The HFIP-pretreated peptides were solubilized in deionized water as above, followed by further dilution to a final concentration of 50 μM in 10 mM phosphate buffer, pH 7.4, containing 150 mM sodium fluoride. Spectra in the far-ultraviolet (wavelength range: 190–260 nm; band-width 1 nm; intervals 1 nm; scan rate 60 nm/min) were recorded for each peptide immediately after solubilization and following 24-h incubation at 37 °C in a Jasco J-720 spectropolarimeter (Jasco Inc., Easton, MD) using a 1-mm-path quartz cell. For each sample, 15 consecutive spectra were obtained and averaged, the baseline reading was subtracted, and results were expressed in terms of molar ellipticity (deg × cm^2/dmol).

[5] = Electron microscopy after negative staining; type: physicochemical; conditions: 24-h incubation/oligomerization
Protocol: All synthetic homologues were incubated at a concentration of 1 mg/ml in 1,1,1,3,3,3,hexafluoro-isopropanol (HFIP; Sigma Chemical Co., St. Louis, MO) for 4 days, a pretreatment that breaks down β-sheet structures and disrupts hydrophobic forces, leading to monodisperse amyloid subunit preparations [67]. The HFIP-pretreated peptides were lyophilized and subsequently reconstituted to 1 mM in 1% NH4OH followed by further dilution in phosphate-buffered saline (PBS) to a final concentration of 50 µM and immediately used for radioiodination and direct intracerebral injection. […] The resulting oligomers were immediately used for radiolabeling and intracerebral injections.
Peptide oligomerization was also monitored by electron microscopy, as previously described [38, 66, 71]. Five microliters of either monomeric or oligomeric preparations of the different Aβ peptides were placed onto carbon-coated 400 mesh Cu/Rh grids (Ted Pella, Inc., Redding, CA) and stained with 1% uranyl acetate in distilled water (Polysciences, Inc., Warrington, PA). The stained grids were examined in a Philips CM-12 transmission electron microscope and photographed with a Gatan (4 k × 2.7 k) digital camera at the Image Core Facility of the Skirball Institute of Biomedical Medicine, NYU School of Medicine, as described [66, 71, 72].

[6] = mouse, in vivo; cited from earlier work
Source text: In this sense, it is important to emphasize that the cerebral microvasculature, a main player in the regulation of Aβ homeostasis, suffers ...

Substance | Brain clearance, percentage cleared relative to the total injected radioactivity, oligomeric (24-h incubated) preparation [1] | Thioflavin T binding (fluorescence) of oligomerized peptides [2] | SDS-resistant oligomeric species of 24-h incubated preparations [3] | Secondary structure by CD upon oligomerization [4] | Protofibrillar assemblies after the aggregation procedure, length (electron microscopy) [5] | Percentage cleared from brain, oligomeric form [6]
Aβ1-42: Synthetic homologue of full-length amyloid-β 1-42 | 61% ± 4% | highest thioflavin T binding | from tetramers to dodecamers | this type of secondary structure became more relevant |  | 
Aβ1-34: Synthetic homologue of amyloid-β C-terminally truncated at Leu34 | 86% ± 6% | negligible fluorescence signal | did not oligomerize within the 24-h experimental timeframe | maintained the same unordered conformation before and after | did not form protofibrilar elements | 
Aβ4-40: Synthetic homologue of Aβ1-40 N-terminally truncated at Phe4 | 46% ± 5% | low-to-intermediate thioflavin T binding activity; also recorded: higher thioflavin-binding activity than the full-length counterpart Aβ1-40 | from tetramers to dodecamers | predominant unstructured random conformations |  | 
Aβ1-40: Synthetic homologue of full-length amyloid-β 1-40 |  | low-to-intermediate thioflavin T binding activity | dimeric, trimeric and tetrameric assemblies | intermediate mixture of β-sheet and unordered structures |  | < 40%
